This note sets out measurements from US20220177587A1, “METHODS AND USES OF VARIANT CD80 FUSION PROTEINS AND RELATED CONSTRUCTS” (Alpine Immune Sciences, Inc., priority 2018, published 2022).

For experiment [1], the target named is CD28 (human) (UniProt P10747).
In experiment [2] the target is human PD-L1 (human) (UniProt Q9NZQ7).
In experiment [3] the target is CD28 (human) (UniProt P10747). The source holds these as a separate data set.
The target of experiment [4] is human PD-L1 (human) (UniProt Q9NZQ7). This is another data set of the same source.
Experiment [5] concerns the target CD28 (human) (UniProt P10747). This is another data set of the same source.
Experiment [6] has as its target CD28 (human) (UniProt P10747). The experiment is described as follows: flow cytometry, Jurkat cells (CD28); MFI over CD80 WT IgV-Fc.
The target in experiment [7] is human CTLA-4 (human) (UniProt P16410). The experiment is described as follows: flow cytometry, CHO cells stably expressing CTLA4. For orientation: In flow cytometry, cells or beads pass a laser one at a time.
Chain of human CTLA-4 (human) (P16410 36-223): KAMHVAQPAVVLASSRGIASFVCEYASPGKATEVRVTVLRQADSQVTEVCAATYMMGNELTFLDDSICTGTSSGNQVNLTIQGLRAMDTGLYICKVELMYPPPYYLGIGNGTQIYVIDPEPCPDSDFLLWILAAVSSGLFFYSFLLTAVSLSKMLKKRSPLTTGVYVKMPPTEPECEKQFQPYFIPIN
Experiment [8] deals with CD28 (human) (UniProt P10747). This is another data set of the same source.
For experiment [9], the target named is human PD-L1 (human) (UniProt Q9NZQ7). The source holds these as a separate data set.
Experiment [10] concerns the target CD28 (human) (UniProt P10747). The experiment can be described thus: flow cytometry, Jurkat cells (CD28).
The target of experiment [11] is human PD-L1 (human) (UniProt Q9NZQ7). The experiment is described as follows: flow cytometry, CHO cells stably expressing PD-L1.
In experiment [12] the target is human CTLA-4 (human) (UniProt P16410). The experiment is described as follows: flow cytometry, CHO/CTLA4 cells; MFI over CD80 WT IgV-Fc.
Experiment [13] concerns the target human PD-L1 (human) (UniProt Q9NZQ7). The experiment can be described thus: flow cytometry, CHO/PD-L1 cells; MFI over CD80 WT IgV-Fc.

Chain of human PD-L1 (human) (Q9NZQ7 19-290): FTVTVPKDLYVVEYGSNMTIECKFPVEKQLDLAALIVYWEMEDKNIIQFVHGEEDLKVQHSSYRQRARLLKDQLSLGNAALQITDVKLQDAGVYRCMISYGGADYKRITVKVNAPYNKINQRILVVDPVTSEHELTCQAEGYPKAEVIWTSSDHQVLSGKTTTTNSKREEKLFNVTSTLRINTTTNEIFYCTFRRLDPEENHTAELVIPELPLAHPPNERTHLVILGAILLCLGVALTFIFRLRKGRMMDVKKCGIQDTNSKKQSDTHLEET

B1: CD80 E35D/D46E/M47I IgV-Fc (Fc fusion)
chain: VIHVTKEVKEVATLSCGHNVSVEELAQTRIYWQKDKKMVLTMMSGEINIWPEYKNRTIFDITNNLSIVILALRPSDEGTYECVVLKYEKDAFKREHLAEVTLSVKAD
As for B1, the IL2-luciferase reporter (RLU), fold increase over WT CD80-IgV-Fc at 5.0 nM with CD28 (human) [1] and with human PD-L1 (human) [2] was 4.8 fold in each case.

B2: CD80 IgV-Fc E35D/M47L/Y53F/V68M/A71G/K93R/E95V (Fc fusion)
chain: VIHVTKEVKEVATLSCGHNVSVEELAQTRIYWQKDKKMVLTMMSGDLNIWPEFKNRTIFDITNNLSIMILGLRPSDEGTYECVVLKYEKDAFRRVHLAEVTLSVKAD
As to B2, the RLU at 5.0 nM: Fold Increase over WT CD80-IgV-Fc with CD28 (human) [3] and with human PD-L1 (human) [4] was 3.9 fold each time.

B3: variant CD80 IgV-Fc V20I/M47V/T57I/V84I (Fc fusion)
chain: VIHVTKEVKEVATLSCGHNISVEELAQTRIYWQKEKKMVLTMMSGDVNIWPEYKNRIIFDITNNLSIVILALRPSDEGTYECVILKYEKDAFKREHLAEVTLSVKAD
As for B3, the Fold increase in IL2 reporter signal (Jurkat/IL2 reporter assay) (fold vs WT CD80 IgV-Fc) with CD28 (human) [5] stood at 0.45.

B4: variant CD80 IgV-Fc E35D/T57I/L70Q/A71D (Fc fusion)
chain: VIHVTKEVKEVATLSCGHNVSVEELAQTRIYWQKDKKMVLTMMSGDMNIWPEYKNRIIFDITNNLSIVIQDLRPSDEGTYECVVLKYEKDAFKREHLAEVTLSVKAD
Regarding B4, the Fold increase in IL2 reporter signal (Jurkat/IL2 reporter assay) (fold vs WT CD80 IgV-Fc) with CD28 (human) [5] was 0.07.

B5: CD80 E35D/M47V/N48K/V68M/K89N IgV-Fc, (EAAAK)3 linker (Fc fusion)
chain: VIHVTKEVKEVATLSCGHNVSVEELAQTRIYWQKDKKMVLTMMSGDVKIWPEYKNRTIFDITNNLSIMILALRPSDEGTYECVVLKYENDAFKREHLAEVTLSVKADEAAAKEAAAKEAAAK
Regarding B5, the Fold change to WT CD80 with CD28 (human) [6] turned out to be 23 fold; with human CTLA-4 (human) [12], 22.6 fold; in the experiment with human PD-L1 (human) [13], 525 fold. Also, the MFI at 33.3 nM was found to be 27100 MFI with human CTLA-4 (human) [7], 1280 MFI in the experiment with CD28 (human) [10] and 24500 MFI with human PD-L1 (human) [11]. In addition, the IL2-luciferase reporter, fold increase in RLU over WT CD80-IgV-Fc at 5.0 nM with CD28 (human) [8] and with human PD-L1 (human) [9] was 4.52 fold each time.

B6: CD80 E35D/D46V/M47L/V68M/L85Q/E88D IgV-Fc, (EAAAK)3 linker (Fc fusion)
chain: VIHVTKEVKEVATLSCGHNVSVEELAQTRIYWQKDKKMVLTMMSGVLNIWPEYKNRTIFDITNNLSIMILALRPSDEGTYECVVQKYDKDAFKREHLAEVTLSVKADEAAAKEAAAKEAAAK
For the molecule B6, the Fold change to WT CD80 with CD28 (human) [6] came to 3.5 fold; with human CTLA-4 (human) [12], 26.8 fold; in the experiment with human PD-L1 (human) [13], 546 fold. Also, the MFI at 33.3 nM with human CTLA-4 (human) [7] stood at 32000 MFI; in the experiment with CD28 (human) [10] it was 197 MFI; with human PD-L1 (human) [11] it was 25500 MFI. Further, the IL2-luciferase reporter, fold increase in RLU over WT CD80-IgV-Fc at 5.0 nM in the experiment with CD28 (human) [8] and with human PD-L1 (human) [9] was 5.25 fold throughout.

B7: CD80 E35D/D46V/M47L/V68M/L85Q/E88D IgV-Fc, GS(G4S)5 linker (Fc fusion)
chain: VIHVTKEVKEVATLSCGHNVSVEELAQTRIYWQKDKKMVLTMMSGVLNIWPEYKNRTIFDITNNLSIMILALRPSDEGTYECVVQKYDKDAFKREHLAEVTLSVKADGSGGGGSGGGGSGGGGSGGGGSGGGGS
In the case of B7, the Fold change to WT CD80 with CD28 (human) [6] amounted to 2.6 fold; with human CTLA-4 (human) [12], 22.2 fold; with human PD-L1 (human) [13] it was 481 fold. In addition, the figures for the MFI at 33.3 nM in the experiment with human CTLA-4 (human) [7], in the experiment with CD28 (human) [10] and in the experiment with human PD-L1 (human) [11] were 26600 MFI, 143 MFI and 22400 MFI, respectively. The IL2-luciferase reporter, fold increase in RLU over WT CD80-IgV-Fc at 5.0 nM in the experiment with CD28 (human) [8] and in the experiment with human PD-L1 (human) [9] was 5.26 fold throughout.

B8: CD80 E35D/M47V/N48K/V68M/K89N IgV-Fc, EAAAK linker (Fc fusion)
chain: VIHVTKEVKEVATLSCGHNVSVEELAQTRIYWQKDKKMVLTMMSGDVKIWPEYKNRTIFDITNNLSIMILALRPSDEGTYECVVLKYENDAFKREHLAEVTLSVKADEAAAK
As for B8, the values for the Fold change to WT CD80 with CD28 (human) [6], in the experiment with human CTLA-4 (human) [12] and with human PD-L1 (human) [13] were 47.1 fold, 23 fold and 491 fold, respectively. Further, the MFI at 33.3 nM turned out to be 27500 MFI in the experiment with human CTLA-4 (human) [7], 2630 MFI in the experiment with CD28 (human) [10] and 22900 MFI in the experiment with human PD-L1 (human) [11]. Also, the IL2-luciferase reporter, fold increase in RLU over WT CD80-IgV-Fc at 5.0 nM with CD28 (human) [8] and with human PD-L1 (human) [9] was 4.38 fold each time.

B9: CD80 E35D/D46V/M47L/V68M/L85Q/E88D IgV-Fc, EAAAK linker (Fc fusion)
chain: VIHVTKEVKEVATLSCGHNVSVEELAQTRIYWQKDKKMVLTMMSGVLNIWPEYKNRTIFDITNNLSIMILALRPSDEGTYECVVQKYDKDAFKREHLAEVTLSVKADEAAAK
As for B9, the figures for the Fold change to WT CD80 in the experiment with CD28 (human) [6], with human CTLA-4 (human) [12] and with human PD-L1 (human) [13] were 10.1 fold, 24.2 fold and 533 fold, respectively. Also, the MFI at 33.3 nM in the experiment with human CTLA-4 (human) [7] was 29000 MFI; with CD28 (human) [10], 563 MFI; with human PD-L1 (human) [11], 24800 MFI. Further, the IL2-luciferase reporter, fold increase in RLU over WT CD80-IgV-Fc at 5.0 nM with CD28 (human) [8] and with human PD-L1 (human) [9] was 3.75 fold throughout.
